# Laboratory results from patent US20200095340A1.
# Changes are numbered by the printed parent chain.
# B1: anti-DLL3 trispecific protein, DLL3 binder 1B08 (protein, part only; not given: CD3 binder and albumin binder, part only)
# chain, part: EVQLVESGGGLVQPGGSLTLSCVASGTTSSINAMGWYRRAPGKQRELVAGISSDGSKVYVDSVKGRFTISRDNAKNSVYLQMNSLRAEDTAVYYCYYFRFVSGSSMRYWGQGTLVTVSSGGGGSGGGSGGGGSGGGSHHHHHH
# B2: anti-DLL3 trispecific protein, DLL3 binder 1E05 (protein, part only; not given: anti-CD3 fragment and anti-albumin domain, part only)
# chain, part: B1 chain, part with T27S, S30V, G35A, V48A, V60A, D61K, V63A, R99N, F100T
# B3: anti-DLL3 trispecific protein, DLL3 binder 1H08 (protein, part only; not given: CD3 binder and albumin binder, part only)
# chain, part: B1 chain, part with T27S, S29F, Y59L, V60A, F100L
# B4: anti-DLL3 trispecific protein, DLL3 binder 1F07 (protein, part only; not given: CD3 fragment and albumin sdAb, part only)
# chain, part: B1 chain, part with T27S, Y59D, V60A, F100T
# B5: anti-DLL3 trispecific protein, DLL3 binder 2D02 (protein, part only; not given: anti-CD3 fragment and anti-albumin sdAb, part only)
# chain, part: B1 chain, part with T27S, M34L, K57L, V60A, F100I
# B6: anti-DLL3 trispecific protein, DLL3 binder 2E08 (protein, part only; not given: anti-CD3 fragment and anti-albumin sdAb, part only)
# chain, part: B1 chain, part with T27S, T28R, S53A, V60A, F100T, V101Q
# B7: anti-DLL3 trispecific protein, DLL3 binder 1D02 (protein, part only; not given: CD3 binder and albumin binder, part only)
# chain, part: B1 chain, part with T27S, G35A, D54N, V60A, F100Q
# B8: anti-DLL3 trispecific protein, DLL3 binder 2H08 (protein, part only; not given: anti-CD3 fragment and anti-albumin domain, part only)
# chain, part: B1 chain, part with T27S, V48A, S53K, V60A, V63A, F100T, M106S
# B9: anti-DLL3 trispecific protein, DLL3 binder 1H06 (protein, part only; not given: anti-CD3 fragment and anti-albumin sdAb, part only)
# chain, part: B1 chain, part with V101L
# B10: anti-DLL3 trispecific protein, DLL3 binder 1G05 (protein, part only; not given: anti-CD3 fragment and anti-albumin sdAb, part only)
# chain, part: B1 chain, part with T27S, M34I, V58Y, V60A, F100T, S102T
# B11: anti-DLL3 trispecific protein, DLL3 binder 2G011 (protein, part only; not given: anti-CD3 fragment and anti-albumin sdAb, part only)
# chain, part: B1 chain, part with T27S, V48P, S53R, V60A, F100Y
# B12: anti-DLL3 trispecific protein, DLL3 binder 3G06 (protein, part only; not given: CD3 binder and albumin binder, part only)
# chain, part: EVQLVESGGGLVQPGGSLTLSCAASGSSVKFLSMAWYRQAPGKKRELVAGISADGSTLYIDSVKGRFTISRDNAKNSVYLQMNSLRAEDTAVYYCYAYRWTTRRTYWGQGTLVTVSSGGGGSGGGSGGGGSGGGSHHHHHH
# B13: anti-DLL3 trispecific protein, DLL3 binder 3G08 (protein, part only; not given: anti-CD3 fragment and anti-albumin sdAb, part only)
# chain, part: B12 chain, part with S28R, K30S, A53K, L58D, R104V
# B14: anti-DLL3 trispecific protein, DLL3 binder 3H09 (protein, part only; not given: anti-CD3 fragment and anti-albumin domain, part only)
# chain, part: B12 chain, part with G26K, K30S, L58D, R104A
# B15: anti-DLL3 trispecific protein, DLL3 binder 4H03 (protein, part only; not given: CD3 binder and albumin binder, part only)
# chain, part: B12 chain, part with S28R, K30S, L58S, R104Y
# B16: anti-DLL3 trispecific protein, DLL3 binder 4G02 (protein, part only; not given: CD3 binder and albumin binder, part only)
# chain, part: B12 chain, part with A53R, L58D, R104H
# B17: anti-DLL3 trispecific protein, DLL3 binder 4E011 (protein, part only; not given: anti-CD3 fragment and anti-albumin sdAb, part only)
# chain, part: B12 chain, part with K30S, D54T, L58D, T101S, R104Y
# B18: anti-DLL3 trispecific protein, DLL3 binder 3A01 (protein, part only; not given: anti-CD3 fragment and anti-albumin sdAb, part only)
# chain, part: B12 chain, part with L58D, T102R, R104Y
# B19: anti-DLL3 trispecific protein, DLL3 binder 3E01 (protein, part only; not given: anti-CD3 fragment and anti-albumin sdAb, part only)
# chain, part: B12 chain, part with L58M, T101H, R104Y
# B20: anti-DLL3 trispecific protein, DLL3 binder 3F08 (protein, part only; not given: CD3 fragment and albumin sdAb, part only)
# chain, part: B12 chain, part with S28R, K30S, T101H, R104Y
# B21: anti-DLL3 trispecific protein, DLL3 binder 3A06 (protein, part only; not given: anti-CD3 fragment and anti-albumin domain, part only)
# chain, part: B12 chain, part with S21R, S28K, K30S, L58D, I60V, T102R, R104Y
# B22: anti-DLL3 trispecific protein, DLL3 binder 3G07 (protein, part only; not given: anti-CD3 fragment and anti-albumin sdAb, part only)
# chain, part: B12 chain, part with K30S, A53R, L58D, T102S, R104Y
# B23: anti-DLL3 trispecific protein, DLL3 binder 3B06 (protein, part only; not given: anti-CD3 fragment and anti-albumin sdAb, part only)
# chain, part: B12 chain, part with S27K, K30S, A53K, L58D, R104Y
# B24: anti-DLL3 trispecific protein, DLL3 binder 4B06 (protein, part only; not given: anti-CD3 fragment and anti-albumin domain, part only)
# chain, part: B12 chain, part with S28R, K30S, L58D, I60F, T102R, R104Y
# B25: anti-DLL3 trispecific protein, DLL3 binder 3A05 (protein, part only; not given: anti-CD3 fragment and anti-albumin domain, part only)
# chain, part: B12 chain, part with K30S, A53E, D54A, L58D, T101R, R104Y
# B26: anti-DLL3 trispecific protein, DLL3 binder 3B010 (protein, part only; not given: anti-CD3 and anti-albumin domains, part only)
# chain, part: B12 chain, part with K30S, A53R, L58D, T101V, R104Y
# B27: anti-DLL3 trispecific protein, DLL3 binder 4H06 (protein, part only; not given: anti-CD3 and anti-albumin domains, part only)
# chain, part: B12 chain, part with S27R, K30S, L58I, R104Y
# B28: anti-DLL3 trispecific protein, DLL3 binder 3B02 (protein, part only; not given: CD3 fragment and albumin sdAb, part only)
# chain, part: B12 chain, part with K30Q, L58D, D61N, T101R, R104Y
# B29: anti-DLL3 trispecific protein, DLL3 binder 3A08 (protein, part only; not given: CD3 binder and albumin binder, part only)
# chain, part: B12 chain, part with K30G, L58D, D61R, T101R, R104Y
# B30: anti-DLL3 trispecific protein, DLL3 binder 3C011 (protein, part only; not given: anti-CD3 fragment and anti-albumin domain, part only)
# chain, part: B12 chain, part with K30R, D54H, L58D, T101R, R104Y
# B31: anti-DLL3 trispecific protein, DLL3 binder 3D05 (protein, part only; not given: CD3 binder and albumin binder, part only)
# chain, part: B12 chain, part with K30R, L58D, T102R, R104Y
# B32: anti-DLL3 trispecific protein, DLL3 binder 3F09 (protein, part only; not given: anti-CD3 fragment and anti-albumin sdAb, part only)
# chain, part: B12 chain, part with K30R, A53R, L58D, T101G, R104Y
# B33: anti-DLL3 trispecific protein, DLL3 binder 4B04 (protein, part only; not given: anti-CD3 fragment and anti-albumin sdAb, part only)
# chain, part: B12 chain, part with K30L, I51V, A53S, L58D, T101R, R104Y
# B34: anti-DLL3 trispecific protein, DLL3 binder 4H09 (protein, part only; not given: anti-CD3 and anti-albumin domains, part only)
# chain, part: B12 chain, part with K30S, F31K, L58D, I60R, T102Y, R104Y
# B35: anti-DLL3 trispecific protein, DLL3 binder 4F03 (protein, part only; not given: CD3 binder and albumin binder, part only)
# chain, part: B12 chain, part with K30Q, A53Y, L58D, T101R, R104Y
# B36: anti-DLL3 trispecific protein, DLL3 binder 3A03 (protein, part only; not given: CD3 fragment and albumin sdAb, part only)
# chain, part: B12 chain, part with S28R, K30S, A53R, L58D
# B37: anti-DLL3 trispecific protein, DLL3 binder 3G02 (protein, part only; not given: CD3 binder and albumin binder, part only)
# chain, part: B12 chain, part with K30S, S56R, L58D, T101R, R104Y
# B38: anti-DLL3 trispecific protein, DLL3 binder 4B05 (protein, part only; not given: anti-CD3 fragment and anti-albumin domain, part only)
# chain, part: B12 chain, part with S28R, K30S, S56H, L58D, R104Y, Y106H
# B39: anti-DLL3 trispecific protein, DLL3 binder 4H07 (protein, part only; not given: anti-CD3 fragment and anti-albumin sdAb, part only)
# chain, part: B12 chain, part with S27R, K30S, D54N, L58D, T101S, R104Y
# B40: anti-DLL3 trispecific protein, DLL3 binder 3C01 (protein, part only; not given: CD3 binder and albumin binder, part only)
# chain, part: B12 chain, part with K30R, D54H, L58D, T101S, R104Y
# B41: anti-DLL3 trispecific protein, DLL3 binder 4C08 (protein, part only; not given: CD3 binder and albumin binder, part only)
# chain, part: B12 chain, part with A23V, S28Q, K30S, L58D, I60F, T102R, R104Y
# B42: anti-DLL3 trispecific protein, DLL3 binder 3D010 (protein, part only; not given: CD3 binder and albumin binder, part only)
# chain, part: B12 chain, part with V29K, K30S, L58S, R104Y
# B43: anti-DLL3 trispecific protein, DLL3 binder 3D08 (protein, part only; not given: anti-CD3 fragment and anti-albumin sdAb, part only)
# chain, part: B12 chain, part with K30R, D54N, L58D, T102N, R104Y
# B44: anti-DLL3 trispecific protein, DLL3 binder 3F03 (protein, part only; not given: CD3 fragment and albumin sdAb, part only)
# chain, part: B12 chain, part with K30S, L58D, T101R, R104Y
# B45: anti-DLL3 trispecific protein, DLL3 binder 3G011 (protein, part only; not given: anti-CD3 fragment and anti-albumin sdAb, part only)
# chain, part: B12 chain, part with S28R, K30S, L58G, T101A, R104Y
# B46: anti-DLL3 trispecific protein, DLL3 binder 4A06 (protein, part only; not given: anti-CD3 fragment and anti-albumin domain, part only)
# chain, part: B12 chain, part with K30R, A53R, L58D
# B47: anti-DLL3 trispecific protein, DLL3 binder 4G07 (protein, part only; not given: anti-CD3 fragment and anti-albumin domain, part only)
# chain, part: B12 chain, part with K30S, M34V, D54N, L58D, T102N, R104Y
# B48: anti-DLL3 trispecific protein, DLL3 binder 4F02 (protein, part only; not given: anti-CD3 fragment and anti-albumin domain, part only)
# chain, part: B12 chain, part with S28T, K30S, A53H, L58D, R104Y
# B49: anti-DLL3 trispecific protein, DLL3 binder 3H07 (protein, part only; not given: anti-CD3 and anti-albumin domains, part only)
# chain, part: B12 chain, part with S28R, K30S, L58S, T101R, R104Y
# B50: anti-DLL3 trispecific protein, DLL3 binder 3E03 (protein, part only; not given: CD3 binder and albumin binder, part only)
# chain, part: B12 chain, part with K30R, A53G, L58D, T101M, R104Y
# Biological target: biotinylated human DLL3 protein expressed as a human IgG1 fusion protein (human) (UniProt Q9NYJ7)
# Test: Octet, biotinylated human DLL3-IgG1 fusion on streptavidin tips, single 50 nM, conditioned medium (relative KD)
# biotinylated human DLL3 protein expressed as a human IgG1 fusion protein (human), sequence (Q9NYJ7 27-492): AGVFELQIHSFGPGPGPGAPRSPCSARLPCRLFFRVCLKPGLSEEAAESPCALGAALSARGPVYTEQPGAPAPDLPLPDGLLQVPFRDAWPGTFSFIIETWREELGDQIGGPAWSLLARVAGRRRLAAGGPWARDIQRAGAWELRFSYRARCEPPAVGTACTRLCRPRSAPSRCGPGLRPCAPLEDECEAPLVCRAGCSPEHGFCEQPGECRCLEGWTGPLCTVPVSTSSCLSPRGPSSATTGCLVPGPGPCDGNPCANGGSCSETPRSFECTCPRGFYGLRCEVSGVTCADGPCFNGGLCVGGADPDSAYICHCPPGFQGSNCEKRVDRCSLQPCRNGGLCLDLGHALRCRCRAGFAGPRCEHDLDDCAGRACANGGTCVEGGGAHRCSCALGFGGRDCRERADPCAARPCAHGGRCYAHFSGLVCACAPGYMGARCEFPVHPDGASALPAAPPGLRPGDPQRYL
row,Binder,Kd [nM]
1,B1,12
2,B2,14
3,B3,17
4,B4,13
5,B5,14
6,B6,17
7,B7,14
8,B8,18
9,B9,14
10,B10,14
11,B11,13
12,B12,12
13,B13,12
14,B14,14
15,B15,13
16,B16,15
17,B17,13
18,B18,16
19,B19,16
20,B20,14
21,B21,16
22,B22,13
23,B23,15
24,B24,16
25,B25,15

row,Binder,Kd [nM]
1,B26,12
2,B27,18
3,B28,12
4,B29,12
5,B30,14
6,B31,16
7,B32,12
8,B33,12
9,B34,16
10,B35,12
11,B36,12
12,B37,20
13,B38,18
14,B39,16
15,B40,14
16,B41,16
17,B42,14
18,B43,17
19,B44,13
20,B45,17
21,B46,13
22,B47,18
23,B48,15
24,B49,13
25,B50,20
